As a reminder, the % inhibition is the share of the control response that was lost under treatment. High values mean a strong effect, low ones a weak effect.

The results in this text go back to patent publication US20040002450A1, “Y17 - isolated molecules comprising epitopes containing sulfated moieties, antibodies to such epitopes, and uses thereof” (priority 2000, published 2004).

The subject of one test is washed platelets. The test can be described thus: Ristocetin-induced agglutination of washed platelets after scFv preincubation. The test is classed as cell-based, human. To be noted: for % inhibition / % agglutination: washed platelets; for % inhibition: ristocetin; for % agglutination: ristocetin = 100%. The method, then:
Aggregation is determined in PRP due to the presence of thrombotic agents, while agglutination is determined in washed platelets. The effect of Y1 (scFv) on agglutination of washed platelets was tested at various concentrations of Y1. Platelets were pre-incubated with Y1 scFv, Y17 scFv, Y16-scFv, or a control TM-1 scFv for 4 min at 37° C. before being exposed to ristocetin, an inducer of platelet agglutination and aggregation.
Platelet concentrate in acid-citrate-dextrose (ACD) was obtained from a blood bank, platelets were isolated, washed once in buffer containing ACD and saline in a ratio of 1:7. The platelets were centrifuged at 800 g for 10 min after each wash and were resuspended in Tyrodes solution (2 mM MgCl2, 137 mM NaCl, 2.68 mM KCl, 3 mM NaH2PO4, 0.1% glucose, 5 mM Hepes and 0.35% albumin, pH 7.35) and count the number of cells.
(§1) For platelet aggregation studies, platelet rich plasma (PRP) and washed platelets were stirred at 500 rpm at 37° C. in whole blood Lumiaggregometer (Chronolog, Havertown, Pa.). The difference in light transmission through the platelet suspension and suspending medium was taken as 100% aggregation. The effect of Y1 on platelet aggregation was evaluated by addition of different concentration of Y1 before the addition of agonist, and the effect was recorded for four minutes.
The effect of Y17-scFv on vWF-dependent agglutination of platelets was tested at different concentrations of Y17.

Test [1] relates to platelet-rich-plasma (PRP). The test can be described thus: Ristocetin-induced aggregation of platelet-rich-plasma after scFv preincubation. The test is classed as cell-based, human. The conditions noted are these: for % inhibition: ristocetin. As for the experimental part: The effect of Y1 (scFv) on aggregation of platelet-rich-plasma (PRP) was tested at various concentrations of Y1. PRP was pre-incubated with Y1 scFv, Y17 scFv, or a control sTM-1cFv for 4 min at 37° C. before being exposed to ristocetin, an inducer of platelet agglutination and aggregation. A reversible inhibitory effect was observed when scFv was added to PRP prior to the addition of ristocetin, and it was dose dependent.
Blood was collected into a tube containing 3.8% sodium citrate. Platelet-rich plasma was prepared by centrifugation at 250×g for 10 minutes.
as §1

Another test deals with Jurkat cells. The test can be described thus: FACS binding to Jurkat cells. To be noted: 1 μg scFv-Y1 versus 5 ng IgG-Y1; two-step staining. On the set-up: species or system human. The text has this: The present invention is directed to Y1 and Y17 multimers prepared by any known method in the art. A preferred method of forming multimers, and especially dimers, employs the use of cysteine residues to form disulfide bonds between two monomers. In this embodiment, dimers are formed by adding a cysteine on the carboxyl terminus of the scFvs (referred to as Y1-cys scFv or Y1 dimer) in order to facilitate dimer formation. After the DNA construct was made (See Example 2D and 6D) and used for transfection, Y1 dimers were expressed in a production vector and refolded in vitro. The protein was analyzed by SDS-PAGE, HPLC, and FACS. […] Two peaks were detected by SDS-PAGE (non-reduced) and by gel filtration. The peaks were collected separately and analyzed by FACS. […] Conditions for dimer refolding were determined, and material comprising >90% dimers (mg quantities) was produced after subsequent dialysis, chromatographic, and gel filtration steps. […]
FACS analysis was performed on Jurkat cells using a “three step staining procedure.” First, crude extracts or purified unlabeled scFv are stained, then mouse anti-myc antibodies, and finally, FITC— or PE-conjugated anti-mouse antibodies. […] After the final staining step, cells were fixed by re-suspending in PBS, 1% BSA, 2% formaldehyde, and then read by FACS (Becton-Dickinson).

Test [2] relates to platelets, KG-1, Raji and T2 cells. The test can be described thus: FACS binding profile on platelets and human cell lines.
Another test has as its target T1, glycocalicin (Homo sapiens, UniProt P07359).
T1 construct: GC, amino acid 1 to amino acid 493 of GPIbα; made in house; host or cells: E. coli BL21 (DE3), total cell lysate
Kind of test: Western blot on natural versus E. coli recombinant glycocalicin. It is filed as binding. As for the experimental part:
The DNA fragment encoding for glycocalicin (GC, amino acid 1 to amino acid 493 of GPIbα) was cloned into an IPTG inducible prokaryotic vector cassette. E. coli (BL21 DE3) cells harboring the newly constructed plasmid were grown at 37° C. to O.D. 0.7-0.8, than at 37° C. for 3 hours for in the presence of IPTG for induction
SDS-polyacrylamide gel loaded either with semi-purified human platelet derived glycocalicin (“GC”) or with E. coli cell lysates (“total”) derived from induced and non-induced cells were analyzed. Western blot analysis was performed with biotinylated Y1-scFv, polyclonal rabbit anti-human glycocalicin antibody, commercially available mouse anti-human CD42 monoclonal antibody (SZ2 Immunotech, PM640 Serotec, HIP 1 Pharmigen, AN51 DAKO), and polyclonal antibody against the N-terminus of GPIbα (Sc-7071, Santa Cruz).

B1: Y1 scFv: fully human scFv clone binding platelets and myelogenous leukemia cells; SEQ ID NO: 25, heavy chain CDR3 SEQ ID NO: 8 (protein, listed as Homo sapiens)
scFv: MKYLLPTAAAGLLLLAAQPAMAEVQLVESGGGVVRPGGSLRLSCAASGFTFDDYGMSWVRQAPGKGLEWVSGINWNGGSTGYADSVKGRFTISRDNAKNSLYLQMNSLRAEDTAVYYCARMRAPVIWGQGTLVTVSRGGGGSGGGGSGGGGSSELTQDPAVSVALGQTVRITCQGDSLRSYYASWYQQKPGQAPVLVIYGKNNRPSGIPDRFSGSSSGNTASLTITGAQAEDEADYYCNSRDSSGNHVVFGGGTKLTVLGAAAEQKLISEEDLNGAA
Take B1: the “effect on ristocetin-induced agglutination of washed platelets (in words)” value with washed platelets (4 μg/ml) was “No inhibition”; in the test with washed platelets (12.5 μg/ml), “only partial inhibition”; with washed platelets (25 μg/ml) it was “inhibited agglutination”. In addition, the “% inhibition” value in the test on washed platelets (scFv 4 μg/ml) was found to be 8%; in the test on washed platelets (scFv 12.5 μg/ml) it was 33%; in the test with washed platelets (scFv 25 μg/ml) it was 77%; in test [1] (scFv 25 μg/ml, PRP) it was 13%; in test [1] (scFv 50 μg/ml, PRP, first 4 minutes) it was 80%. In addition, the entries for the “% agglutination” value in the test on washed platelets (scFv 4 μg/ml), with washed platelets (scFv 12.5 μg/ml) and in the test on washed platelets (scFv 25 μg/ml) were 92%, 67% and 23%, respectively. The “effect on ristocetin-induced platelet aggregation in PRP (in words)” value in test [1] (25 μg/ml) was “no significant inhibition”. Moreover, the “% aggregation” value in test [1] (scFv 25 μg/ml, PRP, ristocetin = 100%) was 87%. Moreover, the “fold more molecules needed for a level of detection similar to IgG-Y1” value in the test on Jurkat cells is on record as “approximately 10^3 fold”. Besides, in test [2], the “binding to Raji and T2 cells” value was “do not bind”. Besides, the “recognition of natural human platelet derived and bacterial recombinant glycocalicin” value in the test with glycocalicin is given as “recognized the natural human-derived glycocalicin, but did not recognize the bacterial derived recombinant platelet glycocalicin”.
